Test results published in article PMC5207133.

Experiments:
[1] = target: Ku70/80 heterodimer (human (endogenous in HeLa)) (UniProt P12956)
[2] = target: XRCC4-DNA ligase IV (X4L4) complex (human) (UniProt Q13426)
XRCC4-DNA ligase IV (X4L4) complex (human), sequence (Q13426 whole entry, chain 1 of 2): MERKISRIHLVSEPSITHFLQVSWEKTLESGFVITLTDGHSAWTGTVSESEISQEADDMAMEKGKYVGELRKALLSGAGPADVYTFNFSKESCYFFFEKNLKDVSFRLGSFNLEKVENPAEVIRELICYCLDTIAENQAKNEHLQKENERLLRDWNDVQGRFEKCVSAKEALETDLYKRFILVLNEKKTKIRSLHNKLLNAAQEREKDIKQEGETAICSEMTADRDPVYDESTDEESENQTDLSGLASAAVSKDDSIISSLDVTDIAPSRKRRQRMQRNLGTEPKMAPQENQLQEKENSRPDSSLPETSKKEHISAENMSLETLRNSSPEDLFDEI
XRCC4-DNA ligase IV (X4L4) complex (human), sequence (P49917 whole entry, chain 2 of 2, further chain): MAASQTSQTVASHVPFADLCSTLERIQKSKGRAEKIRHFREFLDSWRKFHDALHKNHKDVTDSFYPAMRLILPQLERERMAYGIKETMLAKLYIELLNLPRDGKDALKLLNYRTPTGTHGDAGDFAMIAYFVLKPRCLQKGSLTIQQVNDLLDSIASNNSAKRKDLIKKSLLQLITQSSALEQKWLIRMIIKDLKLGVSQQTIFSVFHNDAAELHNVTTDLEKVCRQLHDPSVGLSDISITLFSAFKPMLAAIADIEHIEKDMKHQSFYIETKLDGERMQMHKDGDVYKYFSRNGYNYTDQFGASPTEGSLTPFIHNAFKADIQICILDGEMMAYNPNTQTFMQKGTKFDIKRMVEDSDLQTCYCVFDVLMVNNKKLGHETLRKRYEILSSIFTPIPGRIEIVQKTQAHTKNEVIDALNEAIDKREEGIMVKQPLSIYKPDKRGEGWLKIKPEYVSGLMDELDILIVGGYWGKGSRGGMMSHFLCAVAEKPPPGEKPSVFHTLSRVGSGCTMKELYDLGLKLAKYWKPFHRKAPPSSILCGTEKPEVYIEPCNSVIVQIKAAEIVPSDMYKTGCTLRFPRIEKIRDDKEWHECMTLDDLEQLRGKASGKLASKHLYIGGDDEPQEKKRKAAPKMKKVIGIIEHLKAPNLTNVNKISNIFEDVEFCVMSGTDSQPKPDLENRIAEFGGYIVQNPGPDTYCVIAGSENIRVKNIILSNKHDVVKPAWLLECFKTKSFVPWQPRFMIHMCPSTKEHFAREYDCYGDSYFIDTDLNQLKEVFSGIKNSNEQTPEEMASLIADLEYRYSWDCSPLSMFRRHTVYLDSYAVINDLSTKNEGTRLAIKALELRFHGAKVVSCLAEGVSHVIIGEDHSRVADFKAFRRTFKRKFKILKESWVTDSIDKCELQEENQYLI

aprataxin and polynucleotide kinase/phosphatase-like factor (APLF), GST tag removed, sequence (Q8IW19 whole entry): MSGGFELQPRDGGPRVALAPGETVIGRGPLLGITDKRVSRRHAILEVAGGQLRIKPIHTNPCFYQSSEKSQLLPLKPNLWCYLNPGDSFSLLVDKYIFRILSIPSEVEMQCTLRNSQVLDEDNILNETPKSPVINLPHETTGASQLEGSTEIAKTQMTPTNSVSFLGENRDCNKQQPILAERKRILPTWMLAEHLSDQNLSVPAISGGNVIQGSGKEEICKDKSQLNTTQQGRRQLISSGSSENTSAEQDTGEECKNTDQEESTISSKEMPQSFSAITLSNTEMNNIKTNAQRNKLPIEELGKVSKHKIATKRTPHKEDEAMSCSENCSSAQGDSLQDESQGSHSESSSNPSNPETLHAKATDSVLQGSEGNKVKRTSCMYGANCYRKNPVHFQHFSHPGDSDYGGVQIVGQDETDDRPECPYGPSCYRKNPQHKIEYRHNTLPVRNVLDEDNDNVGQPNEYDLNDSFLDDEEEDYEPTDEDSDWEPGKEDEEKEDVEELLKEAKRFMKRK
Ku70/80 heterodimer (human (endogenous in HeLa)), sequence (P12956 whole entry, chain 1 of 2): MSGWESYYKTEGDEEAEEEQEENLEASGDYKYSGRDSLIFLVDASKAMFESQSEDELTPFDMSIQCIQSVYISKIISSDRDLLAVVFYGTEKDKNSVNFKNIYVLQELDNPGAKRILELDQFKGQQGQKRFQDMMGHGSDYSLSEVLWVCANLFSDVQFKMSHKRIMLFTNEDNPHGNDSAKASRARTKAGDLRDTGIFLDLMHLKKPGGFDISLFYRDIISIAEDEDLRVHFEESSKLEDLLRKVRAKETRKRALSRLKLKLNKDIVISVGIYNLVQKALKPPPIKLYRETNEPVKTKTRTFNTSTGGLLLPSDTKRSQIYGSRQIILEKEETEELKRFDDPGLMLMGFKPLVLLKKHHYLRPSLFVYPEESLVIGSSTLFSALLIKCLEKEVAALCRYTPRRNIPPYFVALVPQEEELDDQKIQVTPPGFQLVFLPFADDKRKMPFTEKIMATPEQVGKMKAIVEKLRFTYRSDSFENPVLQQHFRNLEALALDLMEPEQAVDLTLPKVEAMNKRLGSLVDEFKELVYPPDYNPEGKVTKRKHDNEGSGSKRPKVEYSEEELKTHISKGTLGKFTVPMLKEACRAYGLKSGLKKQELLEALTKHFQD
Ku70/80 heterodimer (human (endogenous in HeLa)), sequence (P13010 whole entry, chain 2 of 2, further chain): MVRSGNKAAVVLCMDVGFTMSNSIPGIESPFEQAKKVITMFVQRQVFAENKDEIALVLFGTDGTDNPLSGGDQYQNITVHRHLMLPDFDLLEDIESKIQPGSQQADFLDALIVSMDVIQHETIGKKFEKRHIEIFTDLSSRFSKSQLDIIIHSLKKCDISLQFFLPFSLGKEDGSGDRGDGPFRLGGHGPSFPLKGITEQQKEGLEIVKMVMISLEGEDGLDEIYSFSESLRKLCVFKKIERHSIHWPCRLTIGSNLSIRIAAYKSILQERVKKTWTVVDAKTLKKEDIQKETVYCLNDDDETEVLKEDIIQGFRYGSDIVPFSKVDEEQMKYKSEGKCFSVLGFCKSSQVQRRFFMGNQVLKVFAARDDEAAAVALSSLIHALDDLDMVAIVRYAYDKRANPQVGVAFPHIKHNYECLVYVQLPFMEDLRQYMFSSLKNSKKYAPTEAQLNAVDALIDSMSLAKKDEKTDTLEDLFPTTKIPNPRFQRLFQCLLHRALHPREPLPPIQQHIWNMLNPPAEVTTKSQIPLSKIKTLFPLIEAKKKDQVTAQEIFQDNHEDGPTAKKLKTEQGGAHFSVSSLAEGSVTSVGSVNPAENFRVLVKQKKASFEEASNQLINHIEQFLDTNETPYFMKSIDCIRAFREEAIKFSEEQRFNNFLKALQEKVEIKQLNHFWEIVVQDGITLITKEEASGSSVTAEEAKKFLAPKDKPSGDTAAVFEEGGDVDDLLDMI

Substance: aprataxin and polynucleotide kinase/phosphatase-like factor (APLF), GST tag removed (from UniProt Q8IW19 1-511) (natural protein)
- stoichiometry N [1]: 1
- stoichiometry N [2]: 1
